From PMC11774494

Molecular target: 17b (CD4-induced human monoclonal antibody)
Assay: flow cytometry of transfected 293T cells: staining with 10 μg/ml 17b with or without sCD4-183, detection with APC anti-human IgG F(ab')2, arithmetic mean APC fluorescence of live (propidium iodide negative) single cells; 'All titrations …
Conditions: sCD4-183 at 0, 0.078125, 0.3125, 1.25, 5, 20, 80 μM (row value in value_extra.sCD4_183_uM), 20 min staining at room temperature, CAUTION: 17b staining of cell-surface trimers with sCD4, mostly reports trimer opening, normalized per Env, one titration each. Higher = more 17b staining of cell-surface Env. 17b's epitope is exposed, numbering: unknown, sequence starts at 1
[1] = AUC over sCD4-183 0-80 μM, parent: 0.907, scale: area under the normalized MFI curve, log10 x-axis
[2] = sCD4-183 0 μM, parent: 0.0187, scale: normalized MFI
[3] = sCD4-183 0.078125 μM, parent: 0.0465, scale: normalized MFI
[4] = sCD4-183 0.3125 μM, parent: 0.0578, scale: normalized MFI
[5] = sCD4-183 1.25 μM, parent: 0.0973, scale: normalized MFI
[6] = sCD4-183 5 μM, parent: 0.198, scale: normalized MFI
[7] = sCD4-183 20 μM, parent: 0.585, scale: normalized MFI
[8] = sCD4-183 80 μM, parent: 1, scale: normalized MFI

Substance	screen value [1]	screen value [2]	screen value [3]	screen value [4]	screen value [5]	screen value [6]	screen value [7]	screen value [8]
HIV-1 JR-CSF envelope glycoprotein gp160 (Env), P20871 JR-CSF_V127A	2.51	0.217	0.347	0.491	0.715	0.915	1	0.951
HIV-1 JR-CSF envelope glycoprotein gp160 (Env), P20871 JR-CSF_K305A	2.6	0.182	0.383	0.554	0.754	0.935	1	0.978
HIV-1 JR-CSF envelope glycoprotein gp160 (Env), P20871 JR-CSF_N332A	1.33	0.0498	0.0842	0.124	0.2	0.456	0.802	1
HIV-1 JR-CSF envelope glycoprotein gp160 (Env), P20871 JR-CSF_W112A	1.64	0.00342	0.153	0.255	0.378	0.566	0.852	1
HIV-1 JR-CSF envelope glycoprotein gp160 (Env), P20871 JR-CSF_T303I	1.66	0.0358	0.0925	0.153	0.308	0.682	0.979	1
HIV-1 JR-CSF envelope glycoprotein gp160 (Env), P20871 JR-CSF_P470A	1.6	0.119	0.215	0.298	0.381	0.492	0.645	1
HIV-1 JR-CSF envelope glycoprotein gp160 (Env), P20871 JR-CSF_T303A	2.51	0.128	0.303	0.493	0.793	0.976	1	0.93
HIV-1 JR-CSF envelope glycoprotein gp160 (Env), P20871 JR-CSF_I309A	3.03	0.326	0.555	0.777	0.912	0.974	0.97	1
HIV-1 JR-CSF envelope glycoprotein gp160 (Env), P20871 JR-CSF_F317A	3.03	0.358	0.582	0.76	0.878	0.942	0.988	1
HIV-1 JR-CSF envelope glycoprotein gp160 (Env), P20871 JR-CSF_Y173A	1.72	0.137	0.199	0.265	0.357	0.533	0.862	1
HIV-1 JR-CSF envelope glycoprotein gp160 (Env), P20871 JR-CSF_E172A	–	0.0468	0.104	0.136	0.175	0.305	0.636	1
HIV-1 JR-CSF envelope glycoprotein gp160 (Env), P20871 JR-CSF_I307A	3.25	0.46	0.691	0.871	0.946	0.908	1	0.979
HIV-1 JR-CSF envelope glycoprotein gp160 (Env), P20871 JR-CSF_T320A	2.47	0.13	0.297	0.477	0.754	0.942	1	0.974
HIV-1 JR-CSF envelope glycoprotein gp160 (Env), P20871 JR-CSF_S199A	2.18	0.0532	0.183	0.348	0.593	0.931	0.997	1
HIV-1 JR-CSF envelope glycoprotein gp160 (Env), P20871 JR-CSF_Y177A	2.87	0.317	0.576	0.719	0.858	0.82	0.942	1
HIV-1 JR-CSF envelope glycoprotein gp160 (Env), P20871 JR-CSF_Y384A	–	0.03	0.141	0.264	0.357	0.491	0.712	1
HIV-1 JR-CSF envelope glycoprotein gp160 (Env), P20871 JR-CSF_N301A	2.59	0.178	0.314	0.564	0.801	0.974	0.958	1
HIV-1 JR-CSF envelope glycoprotein gp160 (Env), P20871 JR-CSF_G324A	2.77	0.248	0.463	0.601	0.836	0.959	0.96	1
HIV-1 JR-CSF envelope glycoprotein gp160 (Env), P20871 JR-CSF_Y318A	2.53	0.234	0.39	0.538	0.703	0.901	0.923	1
HIV-1 JR-CSF envelope glycoprotein gp160 (Env), P20871 JR-CSF_F176A	3.09	0.522	0.639	0.761	0.839	0.927	0.946	1
HIV-1 JR-CSF envelope glycoprotein gp160 (Env), P20871 JR-CSF_N197K	2.29	0.116	0.231	0.402	0.643	0.91	1	0.993
HIV-1 JR-CSF envelope glycoprotein gp160 (Env), P20871 JR-CSF_F210A	–	0.0285	0.184	0.319	0.527	0.908	1	0.997
